Earlier results, collected in patent publication US5362858A, “Polyethylene glycol-hirudin conjugates, process for preparing them and their use for the treatment of thromboses” (Transgene S.A., priority 1992, dated 1994).

Details: removal from the bloodstream

hirudin
half-life period: about 1 h
